Data: patent US10738094B2, “Peptides and combination of peptides for use in immunotherapy against ovarian cancer and other cancers” (immatics biotechnologies GmbH, priority 2015, dated 2020)

Biological target: HLA-A*02:01 (Homo sapiens, UniProt P04439, D140Y/D185E/D98H/E176V/E277Q/G131W/G231S/I119V/I121R/I166T/I218V/L300P/L318F/N151K/N90K/P208A/P217A/Q86G/Q94H/R138H/R169H/T345S)
Assay: MHC binding assay (UV-ligand exchange, beta2m ELISA)
Conditions: binding to HLA-A*02:01 ranged by peptide exchange yield (UV-ligand exchange, β2m ELISA)
In short: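 Stabilised complexes were quantified via their β2m light chain: 100-fold-diluted monomers bound to streptavidin plates, then HRP anti-β2m at 2 ug/ml for 1 h at 37° C., TMB read at 450 nm. The value is the yield of UV-induced exchange of a photocleavable peptide for the candidate.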

| Substance | Peptide exchange |
| --- | --- |
| 140 (YMDAPKAAL; listed as Homo sapiens) [compound 140] | “++” (≥20% = ++) |
| 331 (KVDTVWVNV; listed as Homo sapiens) [compound 331] | “+++” (≥50 = +++) |
| 493 (GLLGEKTQDLIGV; listed as Homo sapiens) [compound 493] | “+++” (≥50 = +++) |
| 192 (KMLDGASFTL; listed as Homo sapiens) [compound 192] | “+++” (≥50 = +++) |
| 250 (ALSEEGLLVYL; listed as Homo sapiens) [compound 250] | “+++” (≥50 = +++) |
| 88 (FLLVGDLMAV; listed as Homo sapiens) [compound 88] | “+++” (≥50 = +++) |
| 44 (ILDPISSGFLL; listed as Homo sapiens) [compound 44] | “++” (≥20% = ++) |
| 619 (ALQDRVPLA; listed as Homo sapiens) [compound 619] | “+++” (≥50 = +++) |
| 514 (ILVDWLVQV; listed as Homo sapiens) [compound 514] | “+++” (≥50 = +++) |
| 433 (AMLNEPWAV; listed as Homo sapiens) [compound 433] | “+++” (≥50 = +++) |
| 74 (ALLDPEVLSIFV; listed as Homo sapiens) [compound 74] | “+++” (≥50 = +++) |
| 388 (SLTIDGIRYV; listed as Homo sapiens) [compound 388] | “+++” (≥50 = +++) |
| 494 (ALQPEPIKV; listed as Homo sapiens) [compound 494] | “++” (≥20% = ++) |
| 215 (QLINHLHAV; listed as Homo sapiens) [compound 215] | “+++” (≥50 = +++) |
| 451 (LLLLDTVTMQV; listed as Homo sapiens) [compound 451] | “++” (≥20% = ++) |
| 449 (KLAEGLDIQL; listed as Homo sapiens) [compound 449] | “+++” (≥50 = +++) |

| Substance | Peptide exchange |
| --- | --- |
| 116 (YHIDEEVGF; listed as Homo sapiens) [compound 116] | “+” (≥10% = +) |
| 505 (SLAPGDVVRQV; listed as Homo sapiens) [compound 505] | “++” (≥20% = ++) |
| 444 (GLLRDEALAEV; listed as Homo sapiens) [compound 444] | “+++” (≥50 = +++) |
| 385 (SLLEQGLVEA; listed as Homo sapiens) [compound 385] | “++” (≥20% = ++) |
| 550 (FLYDEIEAEVNL; listed as Homo sapiens) [compound 550] | “+++” (≥50 = +++) |
| 568 (TLYDIAHTPGV; listed as Homo sapiens) [compound 568] | “++++” (≥75% = ++++) |
| 565 (ALQETPTSV; listed as Homo sapiens) [compound 565] | “++” (≥20% = ++) |
| 296 (FMEGAIIYV; listed as Homo sapiens) [compound 296] | “+++” (≥50 = +++) |
| 383 (ALLELENSVTL; listed as Homo sapiens) [compound 383] | “+++” (≥50 = +++) |
| 81 (FLFSQLQYL; listed as Homo sapiens) [compound 81] | “++” (≥20% = ++) |
| 226 (MLYVVPIYL; listed as Homo sapiens) [compound 226] | “++” (≥20% = ++) |
| 595 (VLLSIYPRV; listed as Homo sapiens) [compound 595] | “+++” (≥50 = +++) |
| 344 (YLQDQHLLLTV; listed as Homo sapiens) [compound 344] | “+++” (≥50 = +++) |
| 208 (KISPVTFSV; listed as Homo sapiens) [compound 208] | “+++” (≥50 = +++) |
| 28 (QLLDETSAITL; listed as Homo sapiens) [compound 28] | “+++” (≥50 = +++) |
| 17 (GLLPGDRLVSV; listed as Homo sapiens) [compound 17] | “+++” (≥50 = +++) |

Next, values leading:

| Peptide exchange | Substance |
| --- | --- |
| “++” (≥20% = ++) | 253 (GLDAATATV; listed as Homo sapiens) [compound 253] |
| “++” (≥20% = ++) | 154 (ALDDGTPAL; listed as Homo sapiens) [compound 154] |
| “++++” (≥75% = ++++) | 339 (GLWEIENNPTVKA; listed as Homo sapiens) [compound 339] |
| “+++” (≥50 = +++) | 66 (FLDENIGGVAV; listed as Homo sapiens) [compound 66] |
| “+++” (≥50 = +++) | 45 (SLWQDIPDV; listed as Homo sapiens) [compound 45] |
| “+++” (≥50 = +++) | 328 (ALNDQVFEI; listed as Homo sapiens) [compound 328] |
| “+++” (≥50 = +++) | 352 (SLLELLHIYV; listed as Homo sapiens) [compound 352] |
| “+++” (≥50 = +++) | 287 (FLNEFFLNV; listed as Homo sapiens) [compound 287] |
| “++” (≥20% = ++) | 33 (VLLSLLEKV; listed as Homo sapiens) [compound 33] |
| “+++” (≥50 = +++) | 181 (LLWAGTAFQV; listed as Homo sapiens) [compound 181] |
| “+++” (≥50 = +++) | 281 (ILRESTEEL; listed as Homo sapiens) [compound 281] |
| “++” (≥20% = ++) | 172 (VLYSYTIITV; listed as Homo sapiens) [compound 172] |
| “+++” (≥50 = +++) | 193 (QLLDADGFLNV; listed as Homo sapiens) [compound 193] |
| “+++” (≥50 = +++) | 545 (LLADLLHNV; listed as Homo sapiens) [compound 545] |
| “++” (≥20% = ++) | 491 (GLNDRSDAV; listed as Homo sapiens) [compound 491] |
| “+++” (≥50 = +++) | 285 (QLLHVGVTV; listed as Homo sapiens) [compound 285] |
| “++++” (≥75% = ++++) | 108 (ALFPGVALLLA; listed as Homo sapiens) [compound 108] |
| “+++” (≥50 = +++) | 171 (LLLPLQILL; listed as Homo sapiens) [compound 171] |
| “++” (≥20% = ++) | 393 (GLLDTQTSQVLTA; listed as Homo sapiens) [compound 393] |
| “+++” (≥50 = +++) | 27 (ILADIVISA; listed as Homo sapiens) [compound 27] |
| “+++” (≥50 = +++) | 439 (YLLQEIYGI; listed as Homo sapiens) [compound 439] |
| “+++” (≥50 = +++) | 120 (ALLGIPLTLV; listed as Homo sapiens) [compound 120] |
| “++++” (≥75% = ++++) | 104 (STMEQNFLL; listed as Homo sapiens) [compound 104] |

| Peptide exchange | Substance |
| --- | --- |
| “+++” (≥50 = +++) | 610 (LLAPTPYIIGV; listed as Homo sapiens) [compound 610] |
| “+++” (≥50 = +++) | 557 (KLYDDMIRL; listed as Homo sapiens) [compound 557] |
| “+++” (≥50 = +++) | 314 (ALIAEGIALV; listed as Homo sapiens) [compound 314] |
| “+++” (≥50 = +++) | 200 (LLFGSVQEV; listed as Homo sapiens) [compound 200] |
| “+++” (≥50 = +++) | 345 (VIWKALIHL; listed as Homo sapiens) [compound 345] |
| “++++” (≥75% = ++++) | 100 (YLLSTNAQL; listed as Homo sapiens) [compound 100] |
| “+++” (≥50 = +++) | 67 (TLLAEALVTV; listed as Homo sapiens) [compound 67] |
| “+++” (≥50 = +++) | 117 (ILPDGEDFLAV; listed as Homo sapiens) [compound 117] |
| “+++” (≥50 = +++) | 26 (ALLELAEEL; listed as Homo sapiens) [compound 26] |
| “+++” (≥50 = +++) | 346 (LLDSKVPSV; listed as Homo sapiens) [compound 346] |
| “++” (≥20% = ++) | 363 (KVLDVSDLESV; listed as Homo sapiens) [compound 363] |
| “+++” (≥50 = +++) | 97 (SLINGSFLV; listed as Homo sapiens) [compound 97] |
| “+++” (≥50 = +++) | 519 (GLLHLTLLL; listed as Homo sapiens) [compound 519] |
| “+++” (≥50 = +++) | 40 (TLLVKVFSV; listed as Homo sapiens) [compound 40] |
| “++” (≥20% = ++) | 127 (KIGDEPPKV; listed as Homo sapiens) [compound 127] |
| “++++” (≥75% = ++++) | 387 (ALFQATAEV; listed as Homo sapiens) [compound 387] |
| “++” (≥20% = ++) | 279 (ALWGGTQPLL; listed as Homo sapiens) [compound 279] |
| “+++” (≥50 = +++) | 442 (GLLGGGGVLGV; listed as Homo sapiens) [compound 442] |
| “++” (≥20% = ++) | 265 (LLFGGTKTV; listed as Homo sapiens) [compound 265] |
| “+++” (≥50 = +++) | 30 (LILDWVPYI; listed as Homo sapiens) [compound 30] |
| “+++” (≥50 = +++) | 202 (ALLDQQGSRWTL; listed as Homo sapiens) [compound 202] |
| “+++” (≥50 = +++) | 501 (LLDPNVKSIFV; listed as Homo sapiens) [compound 501] |
| “++” (≥20% = ++) | 148 (ALNPEIVSV; listed as Homo sapiens) [compound 148] |
